Assay results taken from a protein production outcome set (Wang et al. 2014).

Assay: label from the status in PepcDB records

Sequence	protein production
MIGKEVLNYTIVSLIGKGGMGSVYLAEHKYIKQQKVAIKVINSDMVNDFTRQRLKEEAEHLASLNHQNIVRFHDYHIDELGSIYLIMEYADGISLDKYIQTVSGLIVEDKICPLFEPILDAVEYAHEHNIIHRDIKPANIIITKEGIPKILDFGIATIINRESVEKDDMVMGTPSYMSPEQVRGDHLDSRSDIYSLGVMLHQMLTGNAPYDTTTLTEYDINKKVVEEPLPRMRTYYKYVSDKVQKIVDKATAKEPGERYQTCDDFKKALHRVIYPPKIPKWVWTSVAAIVLLMIGGGVYFWDYNRTKVYYYKDYVEQWGVPQGIGELSSREMSHVNRLYRFEYKKHKLQRMSHVNSKENIIEDGESERNERPLDMLLYYTDKGNISRAKVLDRSGKVLYVKSYNDKLNTVIFQYDDEYGTEKTLGAQTIGYVRALEDNGVEKGKISRWLLEYDENGYVSTIRYAGFQNVLVGDAHNIYGRKYVRDEKGRVLSEHYLSFDGTPKATKWGLGMKKFYYDENDNWVKAEYLTVDGKPAYDDADGIGVYVMEYDKYGNVVYALHQDADGKLMLPKKNGVAGIKYIYDQHGFPIEASYLDIDRKACFIPNDGFSKVVRKFDDNGYIINQTFYDVDGNQCLSNDGNSSAKYINDNRGNVQEMWFYGLDGKLNEINEGYAGVKLNYDSIGNIIEYVTYGIDQKPCLKSDGTAGYKAEYNDMNLITKLVNIGVDLSPCKDNNGIVIAARDYDKRGNQIKVSFYDAGGKTLVLSNENIAGWNSVYDDNGNETERSFFDDKNNLTVCAGSCAKWISKFDEQGNETNLRYYNLSGKLMMVNGSAGANYKRDKRGNILEKIEIGTDEQLASGKLIARYKYDKFDNQIEFSVYDRNNKPALNSLDYHKYVCIYNSRNQRIEIEYYGKDGELTSYNNDKYAIQKDEYDERGYIVRTSYYGKDKQLVVSNEGWASSTREYDVLGNVLKQSFFGIDGKPTDPKVMVPEGLCRYDRWGNRIYLAAGDGKGHLIINPKTGWSIQKSEYNSRGKLLSEAYFDENEKPLISRMDGYHKAVISYTSSGNEKEKCYYDIMNKPMLCPDGYFKEVYEYNDNQQAISLSYLGVNGKSIDCKDGYSKIELTYNKDGEMESRKYTNASGRILLTQKWNGKEWVNSSPEPISRNWQQDVRKFNAELPIDFGENTKHLVASSFLVTGSNSCELSFKTPKSKYEMTEAEVNEYFASIKLVVTKIKSESLPSSVVITGILFDSKGRQLRSIRK	failed
MIGLMIRVAGQLGRYARLLPATAGMVLVLQVAAQADVLTINGGAKFTNYPMVTLGINAALHGGTVQAMRFSIDDSTWTDWEPVAASKRFKLTEPLSLSFYDVFLQFQQDGVAVPDPPYPAAIVYDDLIDTGFFGGQGVALLGGTGSDRGKGVVVQPDGKLLVVGTVEQAAGNTDIVLWRLTAQGEPDTGFGVQGSVVIDAGTADRAAGVALQGDGKILVLGTVGSATTAWEVRRYDSAGVLDTSFGTGGKYQEGASGANEAGNLLVQPDGRIVIIGSRDVAGAKKIQVIRLTATGVLDSAFNGNTGYYRPNLPGNSFGNGVALQADGKILLVGTYANPSGETDLFVQRLKTDGTLDNFNDGLNNFFMAGDAGNDEGLGIAVQPDGKIVVVGAYQWGAGDTDIWVLRLNENGTRDNDFNAPVGDYKDGDVYNDRAEALVIQPDGKIVVVGSFGYATDTDILVFRLNADGTTDNTIYNFYGFYTINSGDDEGQGVALQPDGNIVLVSTFTREEGDTDIHVHRIFGRKETLSVSTTGGGSVADDLGAFTWVDLSGEGDYLQGDSVALTAAPATGYVFTGWGGDCAGTSPVCTVTMDGAKNVTASFSLDRPAAPTGLSGVPGNGTAGISWTASQESGITGYKVYYGITSGNYATPDPVGTTPAHVISGLMNGVTYYIAVSVLKNGVEGPKSAEITVTPGINLSVTVVGTGGGTVSSAPGGISCLDGSGCSAVFNAAPVVLSATPSAGSIFAGWSGACSGTDGCTVTQYGPVAVTATFTKMPPVKLTAGTTSYYSTIAEAYAACIGGTSCTIETQATELAGNVTLANAIAVLFKGGYDATFSSSPGLTTLQGVVTVGRGSLTAQNVVIR	failed
MIGLSKSRGALSMENQKMPEYETIRAAVAGEKWAVEKVVDCYKDEIDRLSTVAVRQPDGSTKQEINEDMRQSITKKLIEALPQFPLEEMEKGNVR	failed
MIGVVATLKVQPAKAAEFEKVFLDLAAKVKANEPGCLVYQLTRSKTEEGVYKVLELYASMDALKHHGGTDYFKAAGAAMGPTMAGAPVIEYLDAVE	not failed
MIGWTLGQYFFIRYLKMTCYFLGGIFVLALLIDFTENSGRLSSLPRYTAKDAFLISVLRIPFIMQQLIPFIALFSAMAMLISLNRKSELVVTRSIGISAWQFLMPACFGAFLFGLFSILLVNPLAAWGFSQAERMMTEWRSKNNNVLTSLHNTRILWLTQRTHSGRTTIGAKSITDQGLSLIDATFVQYNDNATIKNWINSRKATLINGAWLLTDGTIYKIGHPPEKFSELQIQTTLKPEFLTERLVNPATIPFYQLPTKIMIARSFGYSANNFDMYLQSLIALPALLIAMTLIAAVVSLNFTRFGQSKILILGGVIAGFSLYVISILVQAFGNAGYIPPIIAAWTPVFIALFLGISFLLHKEDG	failed
MIIDINRLDRAFDLIKEGVSKGVFPGAVAAVGTRERVIRLESFGNRCLYPEKLSMNKDTLFDLASLTKVVATNTLFMIFLEKGLISVYDNVSYYLEKFKGKNKDDVTIFNLLTHTAGFVPCKPLYKLCKGYEDSIDYICRCGLSYKPGTKCVYSDFSYILLAYILEKIGGDTLDILCDRYIFKPLYMENTTFKPKGNNIAATEIDKKTKKPLIGVCHDENGRFFGGISGHAGLFSDIYDLCKFSNMLVNEGKGIISYASFKAMTTNHTLGLEDNRGYGWCIKGDKNSFMGDIAFPETFGHNGFTGTSLWVDIKNNIYAILLTNRVHPTRDNLRIIRFRRVFSNAVLASLTRLEHHHHHH	failed
MIIKFTVVICTYNGAKRLPKVLDELQNQIDTEAISWEILVVDNNSTDSTKQVVQQYQNTCFKPGQLRYSFEPEQGLAIARQHAVTAARGELIGFLDDDNIPSLTWVASAYLFAQNHPCAGAYGSRIQGEFEVPPPDDFKRIAALLALTERGSKKLLYEPKKKVLPPGAGLVVRKQAWLENVPKRCFLQGRVCEPYLPGEDLEALLHIQQAGWDIWYNPEMQITHQIPHWRLKKDYLVDLCRGIGLSRYHTRMLSVKPWQAPVLFWLYIFNDVRKLILHLYKYRGRVKSDLIAACELELFIGSLLSPPYIWKAYIKKYFRKQRPVSFSSSVRCADYTQN	failed
MIIKGRAHKFGDDVDTDAIIPGPYLRTTDPYELASHCMAGIDENFPKKVKEGDVIVAGENFGCGSSREQAVIAIKYCGIKAVIAKSFARIFYRNAINVGLIPIIANTDEIKDGDIVEIDLDKEEIVITNKNKTIKCETPKGLEREILAAGGLVNYLKKRKLIQSKKGVKT	not failed
MIILKGNKIDYLFLLFGLLGLSTMIYSYLSFSLDVISRNSCTINSVISCSSVENSIYSTFLGIKLYYYGMAYFSAIIVLSLLVVKGTVKNIIGYVISLLSIIASIISVYLIYTEIFLLGHMCIVCTLAHVSIFSVLILSVIKFKV	failed
MIINITILEDNESDFITLSDSIKKWAANTGILINIIWLNSYKKFIKSLPTLKCDLFFSDIELNCNNSFTGIDACKQLRESGYTGIIIFLTAFKEYVFDGYDVQAFNYLLKPINYGTINNCLDKFIHLFSREFYYYHKGNDIISIPYNDIMYIEKNGHDVILHTTSNVFVERISLNEISKRLPVFFIRAHKSYIVNINKVLSLRINELFLPNNVTIPVSRSYLTNIKKKLLEIAR	failed
MIIPTVPTTDELLDKGFRRARKAASLKRSSKIPGQKKAKVIESTRVQTACQVIRDRLKMIIQRIPDIESLPEFYQDYIDVTVGVDELKKSLGALNWAVGILNQLESDYMARIKRSKPSDASHLRREAFGRISSVIKRIEGDLDFLDFAKNKLRNMPTVDLDAFTVVIAGFPNVGKSTLLRTLTGAEPEVADYPFTTKGIQIGHLERKWKRIQVIDTPGLLDRPVEDMNNIELQAMVALENIADVIMFIFDASETCGYTLESQYSLYLGIRSVFDIPVVTVFNKMDLAENVKYLEEYINMVEDPLKVSAFEGRGVSKIIKKLEGLYEKETREAHDNV	failed
MIIPVRRFTPNAYIMRILVSIIVFLCIGWIGRVTELEENFITQNKPVEVGTFVTFTINIPDGSEIPYVAWDFGDGSGLGRYRKSLSVSYTFTEPGVYQVYARIQGEDFPLTVIQTVYKPTQKPAPAHSSTIVIDTVHQKVWAVNTDNNSVAYIDALNNTLLSEIPVGKQPRTVALDKDGNAWVANEEDASISVIAAATGQVLQTIILPYASRPYGICFDPQKDFCYVTLQGTGELVKIEAIGREIVESVHVGRSPRGIAVTSDGSQMLVTQFISPEENGLVRLIDTKTMHVQQEIVLAFDVTPDFEDRGRGVPNFLSSITITPDGTEAWVPSKKDNTARGMFRDGLALEFDNTVRTIVSRIDLSTMTENSQMRTDINDADMACAVEFSPYGNIAFVALQGVNKITMIDVASNSRLGLLDSTGLAPQGLVINADGSRLFVHNFLTRTVKVFNTEDIVLSNNFTPVVAATISTIITEKLAPQVLEGKQIFYNAADERMTFAGYISCASCHLDGASDERVWDFTDRGEGFRNTHSLLGRGGMDMGNVHWTSNFDEIQDFENDMRNGFKGKGFLPDAVFALVSDPLGNPKAGLSRELDALAAYVTSLNKVHASPYRNNDGSLTADGIEGEILFQELGCGSCHAGQDFTDRKTGVLHDVGTEQPSSGERRTLALTGFGTPTLKGIWETAPYLHDGSALTLKDVLVTRNAEKKHGDLSNLTETELDKLVAYLLQIDDNQDAVITALLFPIKREFVAMRIFPNPASESANVQLTNIVKSSGTIRIYNVIGHLLMTVLVEGMNEINLDVSQLNSGVYVVEYSDDTSKYSQKMVIQ	failed
MIIRIVQNIQRINKEGNAPLYISFYLGKEKVVIPCKLSVPTTKFDSKTGMLRGTNKEAKDINLIIERLKAKVNDILVKHRLKNLTLNKEAFMREYNNPSDFKSFHDFVASYMKTYSRRLEIGTFRHHKSCMRKFKEYCEGLQFHELTEDFLRDYLIYMKKTLCNADSTAQRNLSTIKIYVSAAIKKGYMENDPFKDFGVKRIKSNIDYLTEEELIKFISLYYDRRLPERLERTLGFFLFMCFTSLHISDARHVCLEQINNGILTYYRIKNRNCKPEAIKIPLSIPAFKIIEELQGKRKEGHLFTSLQCDQVVNRQIKEIASILEIKKKVSAKTGRHTFATIFLKKTKDVATLQKLLGHSNLKETMIYAHVLDESKQEGMQCFNSFAI	failed
MIKAILIFNNHGKPRLCKFYQHYSEDTQQQIIRETFHLVSKRDENVCNFLEGGLLIGGSDNKLIYRHYATLYFVFCVDSSESELGILDLIQVFVETLDKCFENVCELDLIFHVDKVHNILAEMVMGGMVLETNMNEIVTQIDA	not failed
MIKGFRLWILIVSLGLSFSFLGYQWLTRYNFNTDHQVGDVIDSLNGVEIYYNGGVNTNEGRNLSLDGYNLGIKYQCVEFVKRYFYQRYQHQMPDSFGHARDFFDNLLTDGSWNEKRALRQFTNGSQSKPMADDLLVFAPWILNPYGHVAIIAAVTDKGIEIAQQNPGPFAPSREYFPLIQRDGLWYIDAPRAKGWLRWEATSPNVATENSGFIDPVMVIKELEHHHHHH	not failed
MIKIAIVGFGTVGQGVAELLIRKREEIEKAIGEFKVTAVADSKSSISGDFSLVEALRMKRETGMLRDDAKAIEVVRSADYDVLIEASVTRVDGGEGVNYIREALKRGKHVVTSNKGPLVAEFHGLMSLAERNGVRLMYEATVGGAMPVVKLAKRYLALCEIESVKGIFNGTCNYILSRMEEERLPYEHILKEAQELGYAEADPSYDVEGIDAALKLVIIANTIGVKASYEDVEVTGITQITPEAFQVAAEKGYTIRLIAEVSREKLKVSPRLVPFHHPLAIKGTMNAAMFKTDTAGSIFVAGRGAGKEETASAILSDLYEIYAGPR	failed
